Experiment [1] concerns the target human GLP-1 receptor (GLP1R) (human, UniProt P43220 24-463). Nature of the experiment: cell-based or functional assay.
In experiment [2] the target is human Glucagon receptor (GCGR) (human, UniProt P47871 26-477). Kind of experiment: cell-based or functional assay.

Numbered stars: 1 amine (or outer) side, 2 acyl side, 3 side chain; on linkers, the order of the positions; unused ones are H or OH. Square brackets hold non-standard residues; d marks the D form. Primed or numbered codes have the meaning given here. Side chains are listed from the residue outwards. Ends that are not written are not given here. * marks the point of attachment. Phe(4-CH2NH2) = NCc1ccc(C[C@H](N)C(=O)O)cc1; C18 diacid = O=C(O)CCCCCCCCCCCCCCCCC(=O)*; γGlu = O=C(O)[C@H](CCC(=O)[*:2])N[*:1]; Met(O2) = CS(=O)(=O)CC[C@H](N)C(=O)O; αMeD = C[C@](N)(CC(=O)O)C(=O)O; PEG2′ = not defined here; AEEA = NCCOCCOCC(=O)O; Aib = CC(C)(N)C(=O)O

human Glucagon receptor (GCGR), sequence (P47871 26-477): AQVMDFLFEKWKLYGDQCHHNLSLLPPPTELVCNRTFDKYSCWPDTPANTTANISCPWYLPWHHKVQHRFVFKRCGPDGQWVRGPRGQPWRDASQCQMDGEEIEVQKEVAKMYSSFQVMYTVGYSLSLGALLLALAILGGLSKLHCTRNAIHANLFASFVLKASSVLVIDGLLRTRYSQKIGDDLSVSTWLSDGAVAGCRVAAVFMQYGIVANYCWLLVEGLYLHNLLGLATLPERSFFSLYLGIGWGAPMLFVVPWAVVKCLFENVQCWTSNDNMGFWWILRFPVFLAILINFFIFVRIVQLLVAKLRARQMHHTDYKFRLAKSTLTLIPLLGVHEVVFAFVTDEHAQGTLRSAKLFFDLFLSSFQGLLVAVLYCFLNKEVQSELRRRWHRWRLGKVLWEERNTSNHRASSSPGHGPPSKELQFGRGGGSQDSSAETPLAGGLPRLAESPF

B1: TP693 (peptide)
peptide: HXQGTFTSDXSKYLDARAAQDFVXWLXDT
modifications: D-Ser (s) at 2; pAF(γEγEC16) at 10; K(PEG2PEG2γEC16-OH) at 24; L-methionine sulphone (2) at 27; C-terminal amide
B1: the “GLP1R EC50 human” value in experiment [1] was over 4.9 nM. For the same molecule, the “GCGR EC50 human” value in experiment [2] came to 1.1 nM.

B2: TP678 (peptide)
peptide: H[Aib]QGTFTSDYSKYLDARAA[Phe(4-CH2NH2)]([AEEA-AEEA-AEEA-γGlu-C18 diacid])DFVQWLLDT-NH2
modifications: N-terminus assumed
SMILES: CC(C)C[C@H](NC(=O)[C@H](Cc1ccc(O)cc1)NC(=O)[C@H](CCCCN)NC(=O)[C@H](CO)NC(=O)[C@H](Cc1ccc(O)cc1)NC(=O)[C@H](CC(=O)O)NC(=O)[C@H](CO)NC(=O)[C@@H](NC(=O)[C@H](Cc1ccccc1)NC(=O)[C@@H](NC(=O)CNC(=O)[C@H](CCC(N)=O)NC(=O)C(C)(C)NC(=O)[C@@H](N)Cc1c[nH]cn1)[C@@H](C)O)[C@@H](C)O)C(=O)N[C@@H](CC(=O)O)C(=O)N[C@@H](C)C(=O)N[C@@H](CCCNC(=N)N)C(=O)N[C@@H](C)C(=O)N[C@@H](C)C(=O)N[C@@H](Cc1ccc(CNC(=O)COCCOCCNC(=O)COCCOCCNC(=O)COCCOCCNC(=O)CC[C@H](NC(=O)CCCCCCCCCCCCCCCCC(=O)O)C(=O)O)cc1)C(=O)N[C@@H](CC(=O)O)C(=O)N[C@@H](Cc1ccccc1)C(=O)N[C@H](C(=O)N[C@@H](CCC(N)=O)C(=O)N[C@@H](Cc1c[nH]c2ccccc12)C(=O)N[C@@H](CC(C)C)C(=O)N[C@@H](CC(C)C)C(=O)N[C@@H](CC(=O)O)C(=O)N[C@H](C(N)=O)[C@@H](C)O)C(C)C
Take B2: the “GLP1R EC50 human” value in experiment [1] was 0.91 nM. The “GCGR EC50 human” value in experiment [2] is 0.25 nM.

B3: TP677 (peptide)
peptide: H[Aib]QGTFTSDYSKYLDARAAK([AEEA-AEEA-AEEA-γGlu-C18 diacid])DFVQWL[Met(O2)][αMeD]T-NH2
modifications: N-terminus assumed
SMILES: CC(C)C[C@H](NC(=O)[C@H](Cc1ccc(O)cc1)NC(=O)[C@H](CCCCN)NC(=O)[C@H](CO)NC(=O)[C@H](Cc1ccc(O)cc1)NC(=O)[C@H](CC(=O)O)NC(=O)[C@H](CO)NC(=O)[C@@H](NC(=O)[C@H](Cc1ccccc1)NC(=O)[C@@H](NC(=O)CNC(=O)[C@H](CCC(N)=O)NC(=O)C(C)(C)NC(=O)[C@@H](N)Cc1c[nH]cn1)[C@@H](C)O)[C@@H](C)O)C(=O)N[C@@H](CC(=O)O)C(=O)N[C@@H](C)C(=O)N[C@@H](CCCNC(=N)N)C(=O)N[C@@H](C)C(=O)N[C@@H](C)C(=O)N[C@@H](CCCCNC(=O)COCCOCCNC(=O)COCCOCCNC(=O)COCCOCCNC(=O)CC[C@H](NC(=O)CCCCCCCCCCCCCCCCC(=O)O)C(=O)O)C(=O)N[C@@H](CC(=O)O)C(=O)N[C@@H](Cc1ccccc1)C(=O)N[C@H](C(=O)N[C@@H](CCC(N)=O)C(=O)N[C@@H](Cc1c[nH]c2ccccc12)C(=O)N[C@@H](CC(C)C)C(=O)N[C@@H](CCS(C)(=O)=O)C(=O)N[C@@](C)(CC(=O)O)C(=O)N[C@H](C(N)=O)[C@@H](C)O)C(C)C
Take B3: in experiment [1], the “GLP1R EC50 human” value is 0.76 nM. In experiment [2], the “GCGR EC50 human” value came out at 1.42 nM.

B4: TP682 (peptide)
peptide: H[Aib]QGTFTSDYSKYLD[Aib]RAAQDFVQWLL[Phe(4-CH2NH2)]([AEEA-AEEA-γGlu-C18 diacid])TK-{γGlu-NH2}
Consider B4, for which, in experiment [1], the “GLP1R EC50 human” value was determined as 2.31 nM. Also, the “GCGR EC50 human” value in experiment [2] turned out to be 2.35 nM.

B5: TP675 (peptide)
peptide: H[Aib]QGTFTSDYSKYLD[Aib]RAAQDFVK([AEEA-AEEA-γGlu-C18 diacid])WL[Met(O2)]ET-NH2
modifications: N-terminus assumed
SMILES: CC(C)C[C@H](NC(=O)[C@H](Cc1c[nH]c2ccccc12)NC(=O)[C@H](CCCCNC(=O)COCCOCCNC(=O)COCCOCCNC(=O)CC[C@H](NC(=O)CCCCCCCCCCCCCCCCC(=O)O)C(=O)O)NC(=O)[C@@H](NC(=O)[C@H](Cc1ccccc1)NC(=O)[C@H](CC(=O)O)NC(=O)[C@H](CCC(N)=O)NC(=O)[C@H](C)NC(=O)[C@H](C)NC(=O)[C@H](CCCNC(=N)N)NC(=O)C(C)(C)NC(=O)[C@H](CC(=O)O)NC(=O)[C@H](CC(C)C)NC(=O)[C@H](Cc1ccc(O)cc1)NC(=O)[C@H](CCCCN)NC(=O)[C@H](CO)NC(=O)[C@H](Cc1ccc(O)cc1)NC(=O)[C@H](CC(=O)O)NC(=O)[C@H](CO)NC(=O)[C@@H](NC(=O)[C@H](Cc1ccccc1)NC(=O)[C@@H](NC(=O)CNC(=O)[C@H](CCC(N)=O)NC(=O)C(C)(C)NC(=O)[C@@H](N)Cc1c[nH]cn1)[C@@H](C)O)[C@@H](C)O)C(C)C)C(=O)N[C@@H](CCS(C)(=O)=O)C(=O)N[C@@H](CCC(=O)O)C(=O)N[C@H](C(N)=O)[C@@H](C)O
On to B5, for which the “GLP1R EC50 human” value in experiment [1] came out at 0.71 nM. In addition, in experiment [2], the “GCGR EC50 human” value amounted to 0.3 nM.

B6: TP683 (peptide)
peptide: H[Aib]QGTFTSDYSKYLD[Aib]RAAQDFVQWLLK([AEEA-AEEA-γGlu-C18 diacid])TK-{γGlu-NH2}
In the case of B6, the “GLP1R EC50 human” value in experiment [1] stood at 0.62 nM. Moreover, the “GCGR EC50 human” value in experiment [2] is 4.97 nM.

B7: TP582 (peptide)
peptide: H[Aib]QGTFTSD[Phe(4-CH2NH2)]([AEEA-AEEA-γGlu-C20‑OH])SKYLD[Aib]RAAQDFVQWLLATK-{γGlu-NH2}
On to B7, for which, in experiment [1], the “GLP1R EC50 human” value amounted to 2.57 nM. For the same molecule, the “GCGR EC50 human” value in experiment [2] amounted to 4.95 nM.

B8: TP681 (peptide)
peptide: H[Aib]QGTFTSDYSKYLDARAAQK([AEEA-AEEA-γGlu-C18 diacid])FVQWL[Met(O2)][αMeD]T-NH2
modifications: N-terminus assumed
SMILES: CC(C)C[C@H](NC(=O)[C@H](Cc1ccc(O)cc1)NC(=O)[C@H](CCCCN)NC(=O)[C@H](CO)NC(=O)[C@H](Cc1ccc(O)cc1)NC(=O)[C@H](CC(=O)O)NC(=O)[C@H](CO)NC(=O)[C@@H](NC(=O)[C@H](Cc1ccccc1)NC(=O)[C@@H](NC(=O)CNC(=O)[C@H](CCC(N)=O)NC(=O)C(C)(C)NC(=O)[C@@H](N)Cc1c[nH]cn1)[C@@H](C)O)[C@@H](C)O)C(=O)N[C@@H](CC(=O)O)C(=O)N[C@@H](C)C(=O)N[C@@H](CCCNC(=N)N)C(=O)N[C@@H](C)C(=O)N[C@@H](C)C(=O)N[C@@H](CCC(N)=O)C(=O)N[C@@H](CCCCNC(=O)COCCOCCNC(=O)COCCOCCNC(=O)CC[C@H](NC(=O)CCCCCCCCCCCCCCCCC(=O)O)C(=O)O)C(=O)N[C@@H](Cc1ccccc1)C(=O)N[C@H](C(=O)N[C@@H](CCC(N)=O)C(=O)N[C@@H](Cc1c[nH]c2ccccc12)C(=O)N[C@@H](CC(C)C)C(=O)N[C@@H](CCS(C)(=O)=O)C(=O)N[C@@](C)(CC(=O)O)C(=O)N[C@H](C(N)=O)[C@@H](C)O)C(C)C
On to B8, for which the “GLP1R EC50 human” value in experiment [1] was determined as 0.15 nM. Further, the “GCGR EC50 human” value in experiment [2] was 0.27 nM.

B9: TP676 (peptide)
peptide: H[Aib]QGTFTSDYSKYLDARAAK([AEEA-AEEA-AEEA-γGlu-C18 diacid])DFVQWL[Met(O2)]DT-NH2
modifications: N-terminus assumed
SMILES: CC(C)C[C@H](NC(=O)[C@H](Cc1ccc(O)cc1)NC(=O)[C@H](CCCCN)NC(=O)[C@H](CO)NC(=O)[C@H](Cc1ccc(O)cc1)NC(=O)[C@H](CC(=O)O)NC(=O)[C@H](CO)NC(=O)[C@@H](NC(=O)[C@H](Cc1ccccc1)NC(=O)[C@@H](NC(=O)CNC(=O)[C@H](CCC(N)=O)NC(=O)C(C)(C)NC(=O)[C@@H](N)Cc1c[nH]cn1)[C@@H](C)O)[C@@H](C)O)C(=O)N[C@@H](CC(=O)O)C(=O)N[C@@H](C)C(=O)N[C@@H](CCCNC(=N)N)C(=O)N[C@@H](C)C(=O)N[C@@H](C)C(=O)N[C@@H](CCCCNC(=O)COCCOCCNC(=O)COCCOCCNC(=O)COCCOCCNC(=O)CC[C@H](NC(=O)CCCCCCCCCCCCCCCCC(=O)O)C(=O)O)C(=O)N[C@@H](CC(=O)O)C(=O)N[C@@H](Cc1ccccc1)C(=O)N[C@H](C(=O)N[C@@H](CCC(N)=O)C(=O)N[C@@H](Cc1c[nH]c2ccccc12)C(=O)N[C@@H](CC(C)C)C(=O)N[C@@H](CCS(C)(=O)=O)C(=O)N[C@@H](CC(=O)O)C(=O)N[C@H](C(N)=O)[C@@H](C)O)C(C)C
As for B9, in experiment [1], the “GLP1R EC50 human” value turned out to be 0.26 nM. In addition, the “GCGR EC50 human” value in experiment [2] stood at 0.82 nM.

B10: TP679 (peptide)
peptide: H[Aib]QGTFTSDYSKYLDARAAQ[Phe(4-CH2NH2)]([AEEA-AEEA-AEEA-γGlu-C18 diacid])FVQWLLDT-NH2
modifications: N-terminus assumed
SMILES: CC(C)C[C@H](NC(=O)[C@H](Cc1ccc(O)cc1)NC(=O)[C@H](CCCCN)NC(=O)[C@H](CO)NC(=O)[C@H](Cc1ccc(O)cc1)NC(=O)[C@H](CC(=O)O)NC(=O)[C@H](CO)NC(=O)[C@@H](NC(=O)[C@H](Cc1ccccc1)NC(=O)[C@@H](NC(=O)CNC(=O)[C@H](CCC(N)=O)NC(=O)C(C)(C)NC(=O)[C@@H](N)Cc1c[nH]cn1)[C@@H](C)O)[C@@H](C)O)C(=O)N[C@@H](CC(=O)O)C(=O)N[C@@H](C)C(=O)N[C@@H](CCCNC(=N)N)C(=O)N[C@@H](C)C(=O)N[C@@H](C)C(=O)N[C@@H](CCC(N)=O)C(=O)N[C@@H](Cc1ccc(CNC(=O)COCCOCCNC(=O)COCCOCCNC(=O)COCCOCCNC(=O)CC[C@H](NC(=O)CCCCCCCCCCCCCCCCC(=O)O)C(=O)O)cc1)C(=O)N[C@@H](Cc1ccccc1)C(=O)N[C@H](C(=O)N[C@@H](CCC(N)=O)C(=O)N[C@@H](Cc1c[nH]c2ccccc12)C(=O)N[C@@H](CC(C)C)C(=O)N[C@@H](CC(C)C)C(=O)N[C@@H](CC(=O)O)C(=O)N[C@H](C(N)=O)[C@@H](C)O)C(C)C
Consider B10, for which, in experiment [1], the “GLP1R EC50 human” value was determined as 0.18 nM. Besides, the “GCGR EC50 human” value in experiment [2] was determined as 0.13 nM.

B11: TP680 (peptide)
peptide: H[Aib]QGTFTSDYSKYLDARAAQDFVK([PEG2′-PEG2′-PEG2′-γGlu-C18‑OH])WL[Met(O2)]DT-NH2
Turning to B11, the “GLP1R EC50 human” value in experiment [1] is 0.19 nM. The “GCGR EC50 human” value in experiment [2] was 0.59 nM.
